{"source": "patent US20110262525A1", "about": "“METHODS OF TREATMENT” (SCHERING CORPORATION, priority 2006, published 2011)", "molecules": {"B1": {"name": "LCF/HCA: fully human anti-IGF1R antibody comprising the mature 19D12/15H12 light chain F (LCF) and mature heavy chain A (HCA) (antibody, V domains shown)", "VH": "EVQLVQSGGGLVHPGGSLRLSCAASGFTFSSFAMHWVRQAPGKGLEWISVIDTRGATYYADSVKGRFTISRDNAKNSLYLQMNSLRAEDMAVYYCARLGNFYYGMDVWGQGTTVTVSS", "VL": "EIVLTQVPDFQSVTPKEKVTITCRASQSIGSSLHWYQQKPDQSPKLLIKYASQSLSGVPSRFSGSGSGTDFTLTINSLEAEDAAAYYCHQSSRLPHTFGGGTKVEIKRT"}}, "key": {"[1]": {"test_system": "squamous cell carcinoma cell line SCC 25", "assay": "Cell-Titer Glo proliferation assay, SCC25", "type": "cell-based", "conditions": "0.000256-100 nM antibody, 96 hours", "method": "Cell proliferation was assayed using a Cell-Titer Glo assay (Promega Corp.; Madison, Wis.). A cell-titer glo assay generates a “glow” luminescent signal in the presence of ATP from viable cells, which can be detected with a plate reader luminometer or CCD imaging device.\nIn this assay, squamous cell carcinoma cells, SCC9, SCC25 and SCC15, were trypsinized, counted and resuspended at 25,000 cells/ml in 10% HI-FBS RPMI containing NEAA, L-Glu, MEM Vitamins and PS. […] (2500 cells) were added to each well BD Falcon 96 well black, clear bottom TC treated plate. Cells were allowed to attach and spread overnight at 37° C. Then, 10% RPMI medium was replaced with […] 2% RPMI, containing the LCF/HCA antibody at the appropriate concentration, the following day. The anti-IGF1R antibody concentrations used in each experiment were 100 nM, 20 nM, 5 nM, 0.8 nM, 0.16 nM, 0.032 nM, 0.0064 nM, 0.00128 nM, and 0.000256 nM. All treatments were prepared in 2% RPMI at 20× concentration and serial diluted. Every test point was prepared in triplicate on separate assay plates. As mentioned above, cell proliferation was measured using the CellTiter-Glo Luminescent Cell Viability Assay (Promega) at 96 hours post treatment. Luminescence was detected on a Wallac 420 Plate Reader with stacker."}, "[2]": {"test_system": "SK-NEP-1 xenograft (Ewings)", "assay": "PPTP in vivo xenograft SK-NEP-1", "conditions": "SK-NEP-1 (Ewings) xenograft, 0.5 mg per mouse ip twice weekly for four weeks", "method": "(§1) The PPTP includes a molecularly characterized in vitro panel of cell lines (n=27) and in vivo panel of xenografts (n=61) representing most of the common types of childhood solid tumors and childhood ALL (acute lymphoblastic leukemia). LCF/HCA anti-IGF1R antibody was tested against the PPTP in vitro panel at concentrations ranging from 0.01 nM to 100 nM; and was tested against the PPTP in vivo panel at a dose of 0.5 mg per mouse administered twice weekly for four weeks via intraperitoneal injection. Three measures of antitumor activity were used: 1) response criteria modeled after the clinical setting; 2) treated-to-control (T/C) tumor volume at day 21; and 3) a time to event (4-fold increase in tumor volume) measure based on the median EFS of treated and control lines (intermediate activity required EFS (event-free survival) T/C>2, and high activity additionally required a net reduction in median tumor volume at the end of the experiment).\n(§2) Stage 1 testing involved testing an agent across the entire PPTP panel of childhood cancer xenograft lines at its maximum tolerated dose (MTD) or at a dose selected based on PK/PD (pharmacokinetic/pharmacodynamic) studies using adult preclinical models.\n(§3) In vivo solid tumor testing: For each xenograft line, 10 mice bearing subcutaneous (SC) tumors initiated treatment when the tumors were between 0.2-0.5 cm^3 in volume. Two perpendicular tumor diameters were measured at once weekly intervals with digital vernier calipers. Assuming tumors to be spherical, volumes were calculated from the formula (π/6)×d3, where d represented the mean diameter.\n(§4) Drug: LCF/HCA was dissolved in 20mM sodium acetate pH 5 buffer containing 150 mM sodium chloride, and administered intraperitoneally twice weekly for 4 consecutive weeks at a dose of 0.5 mg per animal. […]\n(§5) Median Group Response: Each individual mouse in each treatment group was assigned a response score (see Tables above) and a median score for the treatment group was calculated and then each treatment group was assigned an overall response according to the table below. […]"}, "[3]": {"test_system": "EW5 xenograft (Ewings)", "assay": "PPTP in vivo xenograft EW5", "design": "key to EFS activity notation (high, intermediate, indeterminate): high (!); intermediate (#); indeterminate (^)", "method": "as §1, §2, §3\n(§6) Drug: LCF/HCA was dissolved in 20mM sodium acetate pH 5 buffer containing 150 mM sodium chloride, and administered intraperitoneally twice weekly for 4 consecutive weeks at a dose of 0.5 mg per animal. The antibody was provided to each testing site in coded vials for blinded testing according the PPTP's standard operating procedures.\n(§7) Median Group Response: Each individual mouse in each treatment group was assigned a response score (see Tables above) and a median score for the treatment group was calculated and then each treatment group was assigned an overall response according to the table below.\n(§8) Statistical Methods: Event-free survival (EFS) distributions of each treatment group were compared to the EFS distribution of the respective control group using the exact log rank test. P-values were 2-sided & were not adjusted for multiple comparisons given the exploratory nature of this study. P-values<0.05 were considered to be significant."}, "[4]": {"test_system": "BT-46 xenograft (Medulloblastoma)", "assay": "PPTP in vivo xenograft BT-46", "conditions": "BT-46 (Medulloblastoma) xenograft, 0.5 mg per mouse ip twice weekly for four weeks", "method": "as §1, §2, §3, §4, §5"}, "[5]": {"test_system": "BT-44 xenograft (Ependymoma)", "assay": "PPTP in vivo xenograft BT-44", "design": "key to EFS activity notation (high, intermediate, indeterminate): high (!); intermediate (#); indeterminate (^)", "conditions": "BT-44 (Ependymoma) xenograft, 0.5 mg per mouse ip twice weekly for four weeks", "method": "as §1, §2, §3, §6, §7, §8"}, "[6]": {"test_system": "D645 xenograft (Glioblastoma)", "assay": "PPTP in vivo xenograft D645", "design": "key to EFS activity notation (high, intermediate, indeterminate): high (!); intermediate (#); indeterminate (^)", "method": "as §1, §2, §3, §6, §7, §8"}, "[7]": {"test_system": "NB-1691 xenograft (Neuroblastoma)", "assay": "PPTP in vivo xenograft NB-1691", "conditions": "NB-1691 (Neuroblastoma) xenograft, 0.5 mg per mouse ip twice weekly for four weeks", "method": "as §1, §2, §3, §4, §5"}, "[8]": {"test_system": "OS-17 xenograft (Osteosarcoma)", "assay": "PPTP in vivo xenograft OS-17", "conditions": "OS-17 (Osteosarcoma) xenograft, 0.5 mg per mouse ip twice weekly for four weeks", "method": "as §1, §2, §3, §6, §7, §8"}, "[9]": {"test_system": "ALL-19 xenograft (ALL B-precursor)", "assay": "PPTP in vivo leukemia xenograft ALL-19", "conditions": "ALL-19 (ALL B-precursor) xenograft; 0.5 mg per mouse ip twice weekly for four weeks", "method": "The PPTP includes a molecularly characterized in vitro panel of cell lines (n=27) and in vivo panel of xenografts (n=61) representing most of the common types of childhood solid tumors and childhood ALL (acute lymphoblastic leukemia). LCF/HCA anti-IGF1R antibody was tested against the PPTP in vitro panel at concentrations ranging from 0.01 nM to 100 nM; and was tested against the PPTP in vivo panel at a dose of 0.5 mg per mouse administered twice weekly for four weeks via intraperitoneal injection. […]\nIn vivo acute lymphoblastic leukemia testing: For each xenograft line, 8 mice were inoculated with 3-5×10^6 mononuclear cells purified from the spleens of secondary recipient mice. Engraftment was monitored weekly by flow cytometry, and treatment was initiated when the proportion of human CD45+ cells in the peripheral blood reached 1%. The proportion of human CD45+ cells in the peripheral blood was monitored weekly throughout the course of treatment. […]\nas §5"}, "[10]": {"conditions": "0.5 mg per mouse ip twice weekly for four weeks"}, "[11]": {"conditions": "day 21, 0.5 mg per mouse ip twice weekly for four weeks"}}, "note": "Marks after values point to notes of the source that are not given here.", "data": [{"molecule": "B1", "values": [{"measurement": "proliferation of squamous cell carcinoma cell line", "setting": "[1]", "value": "inhibited"}, {"measurement": "EFS T/C", "setting": "[2]", "value": 0.9}, {"measurement": "Median Final RTV", "setting": "[2]", "value": ">4"}, {"measurement": "Tumor Volume T/C", "setting": "[2]; day 21", "value": 1.08}, {"measurement": "EFS T/C", "setting": "[3]; [10]", "value": "> 2.3"}, {"measurement": "EFS activity notation (high, intermediate, indeterminate)", "setting": "[3]; [10]", "value": "!"}, {"measurement": "Median Final RTV", "setting": "[3]; [10]", "value": "0.4!"}, {"measurement": "Overall Group Response", "setting": "[3]; [10]", "value": "CR* (7 < MS ≦ 9)"}, {"measurement": "Tumor Volume T/C", "setting": "[3]; [11]", "value": 0.12}, {"measurement": "EFS T/C", "setting": "[4]", "value": 1.2}, {"measurement": "Median Final RTV", "setting": "[4]", "value": ">4"}, {"measurement": "Tumor Volume T/C", "setting": "[4]; day 21", "value": 0.69}, {"measurement": "EFS T/C", "setting": "[5]", "value": 2.6}, {"measurement": "EFS activity notation (high, intermediate, indeterminate)", "setting": "[5]", "value": "#"}, {"measurement": "Median Final RTV", "setting": "[5]", "value": ">4#"}, {"measurement": "Overall Group Response", "setting": "[5]", "value": "PD2 (1 < MS ≦ 3)"}, {"measurement": "Tumor Volume T/C", "setting": "[5]; day 21", "value": 0.66}, {"measurement": "EFS T/C", "setting": "[6]; [10]", "value": 2.2}, {"measurement": "EFS activity notation (high, intermediate, indeterminate)", "setting": "[6]; [10]", "value": "#"}, {"measurement": "Median Final RTV", "setting": "[6]; [10]", "value": ">4#"}, {"measurement": "Overall Group Response", "setting": "[6]; [10]", "value": "PD2 (1 < MS ≦ 3)"}, {"measurement": "Tumor Volume T/C", "setting": "[6]; [11]", "value": 0.58}, {"measurement": "EFS T/C", "setting": "[7]", "value": 0.9}, {"measurement": "Median Final RTV", "setting": "[7]", "value": ">4"}, {"measurement": "Tumor Volume T/C", "setting": "[7]; day 21", "value": 1.34}, {"measurement": "EFS T/C", "setting": "[8]", "value": 2}, {"measurement": "Median Final RTV", "setting": "[8]", "value": ">4"}, {"measurement": "Overall Group Response", "setting": "[8]", "value": "PD2 (1 < MS ≦ 3)"}, {"measurement": "Tumor Volume T/C", "setting": "[8]; day 21", "value": 0.55}, {"measurement": "EFS T/C", "setting": "[9]", "value": 1.5}, {"measurement": "Median Final RTV", "setting": "[9]", "value": ">25"}]}]}
